The source of these data is the supplement of paper PMC11246515.

The series is described as follows: total protein half-life in vivo (active degradation + dilution); higher = more stable protein.
Where [1] appears, read: wild type E. coli NCM3722, growth: C-lim chemostat, doubling time 3 h.
Where [2] appears, read: wild type E. coli NCM3722, growth: C-lim chemostat, doubling time 6 h.
Where [3] appears, read: wild type E. coli NCM3722, growth: C-lim chemostat, doubling time 12 h.
The mark [4] stands for this setting: E. coli NCM3722 delta-clpP, growth: N-lim chemostat, doubling time 6 h.
The mark [5] stands for this setting: E. coli NCM3722 delta-hslV, growth: N-lim chemostat, doubling time 6 h.
Setting [6] is: E. coli NCM3722 delta-lon, growth: N-lim chemostat, doubling time 6 h.
The mark [7] stands for this setting: E. coli NCM3722 delta-smpB, growth: N-lim chemostat, doubling time 6 h.
[8] abbreviates: wild type E. coli NCM3722, growth: N-lim chemostat, doubling time 6 h.
Where [9] appears, read: wild type E. coli NCM3722, growth: N-lim chemostat, doubling time 12 h.
[10] abbreviates: wild type E. coli NCM3722, growth: P-lim chemostat, doubling time 6 h.
The mark [11] stands for this setting: wild type E. coli NCM3722, growth: P-lim chemostat, doubling time 12 h.
Where [12] appears, read: E. coli NCM3722 delta-clpP delta-lon delta-hslV, growth: N-lim chemostat, doubling time 6 h.

± gives the standard deviation of the averaged measurements.

As to “MERNKLARQIIDTCLEMTRLGLNQGTAGNVSVRYQDGMLITPTGIPYEKLTESHIVFIDGNGKHEEGKLPSSEWRFHMAAYQSRPDANAVVHNHAVHCTAVSILNRSIPAIHYMIAAAGGNSIPCAPYATFGTRELSEHVALALKNRKATLLQHHGLIACEVNLEKALWLAHEVEVLAQLYLTTLAITDPVPVLSDEEIAVVLEKFKTYGLRIEE [P0AB87]”, the “total protein half-life in vivo” value is, setting by setting: under setting [1], 2.81 ± 0.01 h; under setting [2], 4.78 ± 0.5 h; under setting [3], 7.71 ± 0.3 h.
On to “MAIERTFSIIKPNAVAKNVIGNIFARFEAAGFKIVGTKMLHLTVEQARGFYAEHDGKPFFDGLVEFMTSGPIVVSVLEGENAVQRHRDLLGATNPANALAGTLRADYADSLTENGTHGSDSVESAAREIAYFFGEGEVCPRTR [P0A763]”, for which the “total protein half-life in vivo” value worked out at 3.93 ± 0.36 h under setting [4]; 3.85 ± 0.32 h under setting [5]; 4.39 ± 0.36 h under setting [6]; 3.92 ± 0.15 h under setting [7]; 3.09 ± 0.092 h under setting [1]; 5.64 ± 0.11 h under setting [2]. Also, the “total protein half-life in vivo” value came out at 9.324 ± 0.023 h under setting [3]; 3.88 ± 0.28 h under setting [8]; 6.19 ± 0.36 h under setting [9]; 5 ± 0.82 h under setting [10]; 10.6 ± 0.11 h under setting [11].
Take “MSKSDVFHLGLTKNDLQGATLAIVPGDPDRVEKIAALMDKPVKLASHREFTTWRAELDGKPVIVCSTGIGGPSTSIAVEELAQLGIRTFLRIGTTGAIQPHINVGDVLVTTASVRLDGASLHFAPLEFPAVADFECTTALVEAAKSIGATTHVGVTASSDTFYPGQERYDTYSGRVVRHFKGSMEEWQAMGVMNYEMESATLLTMCASQGLRAGMVAGVIVNRTQQEIPNAETMKQTESHAVKIVVEAARRLL”: the “total protein half-life in vivo” value reads like this: under setting [12], 6.83 ± 0.33 h; under setting [4], 6.27 ± 0.78 h; under setting [5], 7.09 ± 0.43 h; under setting [6], 5.95 ± 0.47 h; under setting [7], 5.823 ± 0.029 h; under setting [1], 3.23 ± 0.11 h. Besides, the “total protein half-life in vivo” value reads like this: under setting [2], 6.246 ± 0.033 h; under setting [3], 13.7 ± 2.1 h; under setting [8], 5.75 ± 0.092 h; under setting [9], 10.7 ± 0.74 h; under setting [10], 5.99 ± 0.2 h; under setting [11], 12.4 ± 0.29 h.
For “MSHPALTQLRALRYCKEIPALDPQLLDWLLLEDSMTKRFEQQGKTVSVTMIREGFVEQNEIPEELPLLPKESRYWLREILLCADGEPWLAGRTVVPVSTLSGPELALQKLGKTPLGRYLFTSSTLTRDFIEIGRDAGLWGRRSRLRLSGKPLLLTELFLPASPLY”, the “total protein half-life in vivo” value came out at 4.9 ± 0.4 h under setting [12]; 2.28 ± 0.017 h under setting [4]; 3.04 ± 0.035 h under setting [5]; 3.5 ± 0.31 h under setting [6]; 2.14 ± 0.061 h under setting [7]; 2.41 ± 0.13 h under setting [1]. The “total protein half-life in vivo” value worked out at 4.27 ± 0.27 h under setting [2]; 7.06 ± 0.53 h under setting [3]; 3.15 ± 0.3 h under setting [8]; 4.66 ± 0.034 h under setting [9]; 4.77 ± 0.55 h under setting [10]; 8.85 ± 0.47 h under setting [11].
As for “MLKQVEIFTDGSCLGNPGPGGYGAILRYRGREKTFSAGYTRTTNNRMELMAAIVALEALKEHCEVILSTDSQYVRQGITQWIHNWKKRGWKTADKKPVKNVDLWQRLDAALGQHQIKWEWVKGHAGHPENERCDELARAAAMNPTLEDTGYQVEV [P0A7Y4]”, the “total protein half-life in vivo” value worked out at 6.46 ± 0.89 h under setting [4]; 5.92 ± 0.082 h under setting [2]; 9.26 h under setting [3]; 4.7 ± 0.96 h under setting [8]; 6.5 ± 0.82 h under setting [10].
Regarding “MENAKMNSLIAQYPLVKDLVALKETTWFNPGTTSLAEGLPYVGLTEQDVQDAHARLSRFAPYLAKAFPETAATGGIIESELVAIPAMQKRLEKEYQQPISGQLLLKKDSHLPISGSIKARGGIYEVLAHAEKLALEAGLLTLDDDYSKLLSPEFKQFFSQYSIAVGSTGNLGLSIGIMSARIGFKVTVHMSADARAWKKAKLRSHGVTVVEYEQDYGVAVEEGRKAAQSDPNCFFIDDENSRTLFLGYSVAGQRLKAQFAQQGRIVDADNPLFVYLPCGVGGGPGGVAFGLKLAFGDHVHCFFAEPTHSPCMLLGVHTGLHDQISVQDIGIDNLTAADGLAVGRASGFVGRAMERLLDGFYTLSDQTMYDMLGWLAQEEGIRLEPSALAGMAGPQRVCASVSYQQMHGFSAEQLRNTTHLVWATGGGMVPEEEMNQYLAKGR”, the “total protein half-life in vivo” value was determined as 5.22 ± 0.27 h under setting [12]; 5.27 ± 1.2 h under setting [4]; 4.89 ± 0.1 h under setting [5]; 5.43 ± 0.24 h under setting [6]; 4.517 ± 0.042 h under setting [7]; 3.01 ± 0.033 h under setting [1]. Further, the “total protein half-life in vivo” value was 10 ± 1.9 h under setting [3]; 4.91 ± 0.21 h under setting [8]; 7.88 ± 0.44 h under setting [9]; 5.98 ± 0.35 h under setting [10]; 11.2 ± 2.2 h under setting [11].
For the sequence “MSGARLHTLLPELTTRQSVMVVGAAVIDVIADAYALPWRGCDIELKQQSVNVGGCALNIAVALKRLGIEAGNALPLGQGVWAEMIRNRMAKEGLISLIDNAEGDNGWCLALVEPDGERTFMSFSGVENQWNRQWLARLTVAPGSLLYFSGYQLASPCGELLVEWLEELQDVTPFIDFGPRIGDIPDALLARIMACRPLVSLNRQEAEIAAERFALSAEITTLGKQWQEKFAAPLIVRLDKEGAWYFSNDASGCIPAFPTQVVDTIGAGDSHAGGVLAGLASGLPLADAVLLGNAVASWVVGHRGGDCAPTREELLLAHKNV”, the “total protein half-life in vivo” value is, setting by setting: under setting [12], 4.46 ± 0.92 h; under setting [4], 3.62 ± 0.076 h; under setting [7], 3.76 ± 0.33 h; under setting [1], 3.02 ± 0.012 h; under setting [2], 4.79 ± 0.53 h; under setting [3], 6.71 ± 3.7 h. The “total protein half-life in vivo” value amounted to 3.67 ± 0.096 h under setting [8], 6.33 ± 1.1 h under setting [9], 4.76 ± 0.76 h under setting [10] and 11.1 ± 2.4 h under setting [11].
“MVRIYTLTLAPSLDSATITPQIYPEGKLRCTAPVFEPGGGGINVARAIAHLGGSATAIFPAGGATGEHLVSLLADENVPVATVEAKDWTRQNLHVHVEASGEQYRFVMPGAALNEDEFRQLEEQVLEIESGAILVISGSLPPGVKLEKLTQLISAAQKQGIRCIVDSSGEALSAALAIGNIELVKPNQKELSALVNRELTQPDDVRKAAQEIVNSGKAKRVVVSLGPQGALGVDSENCIQVVPPPVKSQSTVGAGDSMVGAMTLKLAENASLEEMVRFGVAAGSAATLNQGTRLCSHDDTQKIYAYLSR”: the “total protein half-life in vivo” value stood at 5.23 ± 0.52 h under setting [12]; 4.483 ± 0.036 h under setting [4]; 4.05 ± 0.088 h under setting [5]; 4.74 ± 0.28 h under setting [6]; 3.8 ± 0.18 h under setting [7]; 3.32 ± 0.21 h under setting [1]. In addition, the “total protein half-life in vivo” value by setting is: under setting [2], 6.09 ± 0.64 h; under setting [3], 10.7 ± 1.1 h; under setting [8], 4.436 ± 0.02 h; under setting [9], 6.92 ± 0.5 h; under setting [10], 5.84 ± 0.18 h; under setting [11], 11.864 ± 0.0075 h.
